In publication PMC11208146, “Molecular basis for transposase activation by a dedicated AAA+ ATPase”:

Legend:
IstB = IstB (Geobacillus stearothermophilus (IS5376, …, UniProt Q45619 1-251)); assay: cryo-EM structure (3.2 A); size-exclusion co-elution; 1 mM ATP, 5 mM MgCl2; IstB-DNA: 20 mM HEPES pH 7.5, 150 mM NaCl, 5 mM MgCl2, 5% glycerol, 1 mM ATP, 1 mM DTT; dialysis at 4 C, SEC at room temperature; IstB:DNA 6.5:1. STC complex buffer not in the material; settings: protein: recombinant; tags: His6-MBP, cleaved with PreScission protease; chain copies: 10; blunt
[1] = target: IstA;IstB E167Q (Walker B mutant) (Geobacillus stearothermophilus (IS5376, …, UniProt Q45618;Q45619 1-400;1-251, |E167Q)); assay: cryo-EM structure (3.6 A; core 3.2 A); ATP, with ADP in IstA-bound IstB subunits; Mg2+; IstB-DNA: 20 mM HEPES pH 7.5, 150 mM NaCl, 5 mM MgCl2, 5% glycerol, 1 mM ATP, 1 mM DTT; dialysis at 4 C, SEC at room temperature; IstB:DNA 6.5:1. STC complex buffer not in the material; settings: protein: recombinant;recombinant; tags: C-terminal MBP-His6, cleaved with TEV protease;His6-MBP, cleaved with PreScission protease; chain copies: 4;20; 5' overhang 5 nt on non-transferred strand; half-substrates of 3 strands, 2 copies pair via the insertion site (5 bp spacing)
IstA;IstB = IstA;IstB (Geobacillus stearothermophilus (IS5376, …, UniProt Q45618;Q45619 1-400;1-251, |)); assay: negative-stain EM 2D averages; wild-type IstB; IstB-DNA: 20 mM HEPES pH 7.5, 150 mM NaCl, 5 mM MgCl2, 5% glycerol, 1 mM ATP, 1 mM DTT; dialysis at 4 C, SEC at room temperature; IstB:DNA 6.5:1. STC complex buffer not in the material; settings: protein: recombinant;recombinant; tags: C-terminal MBP-His6, cleaved with TEV protease;His6-MBP, cleaved with PreScission protease; chain copies: 4;20; 5' overhang 5 nt on non-transferred strand; half-substrates of 3 strands, 2 copies pair via the insertion site (5 bp spacing)

Binder	binding result (IstB)	binding result [1]	binding result (IstA;IstB)
random 60-mer target duplex (dsDNA) DNA 1: TGCTTGCGATGATCCGACGTGTTAGCCACGCTGACTAGTTATGCCATGCCTCCCTTCAGG DNA 2: CCTGAAGGGAGGCATGGCATAACTAGTCAGCGTGGCTAACACGTCGGATCATCGCAAGCA	binds	–	–
IS21 strand-transfer complex (STC) DNA (dsDNA) DNA 1: CCTTCTGGGGAATTTTAAACCGGCGATTTTGGGGAAAAAATAATCGGCCTTGACAGCTGCACAGTAAGAGAATTATGCAGTGCTGCCATAACCATGAGTGATAACACTGCGGCCAACTTACTTCTGACAA DNA 2: ATTCATGTCAAGGCCGATTATTTTTTCCCCAAAATCGCCGGTTTAAAATTCCCCAGAAGG DNA 3: TTGTCAGAAGTAAGTTGGCCGCAGTGTTATCACTCATGGTTATGGCAGCACTGCATAATTCTCTTACTGT	–	binds	binds
